Consider three substances from US5607849.

Experiment [1] addresses dimethylated casein.
Experiment [2] addresses dimethylated casein. This is another data set of the same source.
The target of experiment [3] is dimethylated casein. The source holds these as a separate data set.

Read-outs that look alike come from different tables or passages of the source.

For “Alaska pollack (Theragra chalcogramma) liver-derived transglutaminase, natural enzyme purified from liver (S-Sepharose fraction)”, the relative activity (fluorescence intensity due to bonding of monodansylcadaverine with dimethylated casein) (units/mg protein) in experiment [1] stood at 591. Turning to “Pagrus major transglutaminase, recombinant (expressed from the cDNA of pSLTG5 by plasmids pIL6TG1 and pTTG2-22 in E. coli HB101 and pYSTG1 in Saccharomyces cerevisiae INVSC2) (enzyme)”, the Relative fluorescence intensity (bonding of monodansyl cadaverine with dimethylated casein) (relative fluorescence intensity) in experiment [2] is 910. With “Pagrus major liver-derived transglutaminase, natural enzyme purified from liver (heparin fraction)”, the relative activity (fluorescence intensity due to bonding of monodansylcadaverine with dimethylated casein) (units/mg protein) in experiment [3] was found to be 807.
